Results published in patent US20210371867A1 (SYSMEX, published 2021).
Substitutions are numbered along the chain they refer to.

B1: ALP fusion antibody of Example 2 (GS3): Fab of mouse anti-human IgG antibody, Fd-GS3-BIAPII (Fab, part only; not given: Fd and light chain of anti-IgG Fab, part only)
heavy, part: GGGGSGGGGSGGGGSLIPAEEENPAFWNRQAAQALDVAKKLQPIQTAAKNVILFLGDGMGVPTVTATRILKGQMNGKLGPETPLAMDQFPYVALSKTYNVDRQVPDSAGTATAYLCGVKGNYRTIGVSAAARYNQCNTTRGNEVTSVINRAKKAGKAVGVVTTTRVQHASPAGAYAHTVNRNWYSDADLPADAQKNGCQDIAAQLVYNMDIDVILGGGRMYMFPEGTPDPEYPDDASVNGVRKDKQNLVQEWQAKHQGAQYVWNRTALLQAADDSSVTHLMGLFEPADMKYNVQQDHTKDPTLAEMTEAALQVLSRNPRGFYLFVEGGRIDHGHHDGKAYMALTEAIMFDNAIAKANELTSELDTLILVTADHSHVFSFGGYTLRGTSIFGLAPGKALDSKSYTSILYGNGPGYALGGGSRPDVNGSTSEEPSYRQQAAVPLASETHGGEDVAVFARGPQAHLVHGVQEETFVAHIMAFAGCVEPYTDCNLPAPA
B2: ALP fusion antibody of Example 1 (EK3 linker): Fab of rabbit anti-CD80 antibody, Fd-EK3-BIAPII (Fab)
heavy: QSVEESGGRLVTPGTPLTLTCTASGFSLSNNAVSWVRQAPGEGLEWIGTISSNDNTYYATWAKGRFTISKTSTTVDLKITSPTTEDTATYFCAIYYYGYGYVFNLWGPGTLVTVSSGQPKAPSVFPLAPCCGDTPSSTVTLGCLVKGYLPEPVTVTWNSGTLTNGVRTFPSVRQSSGLYSLSSVVSVTSSSQPVTCNVAHPATNTKVDKTVAPSTCSKPTEAAAKEAAAKEAAAKLIPAEEENPAFWNRQAAQALDVAKKLQPIQTAAKNVILFLGDGMGVPTVTATRILKGQMNGKLGPETPLAMDQFPYVALSKTYNVDRQVPDSAGTATAYLCGVKGNYRTIGVSAAARYNQCNTTRGNEVTSVINRAKKAGKAVGVVTTTRVQHASPAGAYAHTVNRNWYSDADLPADAQKNGCQDIAAQLVYNMDIDVILGGGRMYMFPEGTPDPEYPDDASVNGVRKDKQNLVQEWQAKHQGAQYVWNRTALLQAADDSSVTHLMGLFEPADMKYNVQQDHTKDPTLAEMTEAALQVLSRNPRGFYLFVEGGRIDHGHHDGKAYMALTEAIMFDNAIAKANELTSELDTLILVTADHSHVFSFGGYTLRGTSIFGLAPGKALDSKSYTSILYGNGPGYALGGGSRPDVNGSTSEEPSYRQQAAVPLASETHGGEDVAVFARGPQAHLVHGVQEETFVAHIMAFAGCVEPYTDCNLPAPA
light: ELVMTQTPASVSEPVGGTVTINCQASEDIYSSLAWYQQKPGQRPKLLMYYASTLASGVPSRFKGSGSGTEFTLTISDLECADAATYYCQSYYLSSSSRYGNAFGGGTEVVVKGDPVAPTVLIFPPAADQVATGTVTIVCVANKYFPDVTVTWEVDGTTQTTGIENSKTPQNSADCTYNLSSTLTLTSTQYNSHKEYTCKVTQGTTSVVQSFIG
notes: Fab-enzyme fusion, dimer through the ALP subunits
B3: ALP fusion antibody of Example 2 (EK3): Fab of mouse anti-human IgG antibody, Fd-EK3-BIAPII (Fab, part only; not given: Fd and light chain of anti-IgG Fab, part only)
heavy, part: EAAAKEAAAKEAAAKLIPAEEENPAFWNRQAAQALDVAKKLQPIQTAAKNVILFLGDGMGVPTVTATRILKGQMNGKLGPETPLAMDQFPYVALSKTYNVDRQVPDSAGTATAYLCGVKGNYRTIGVSAAARYNQCNTTRGNEVTSVINRAKKAGKAVGVVTTTRVQHASPAGAYAHTVNRNWYSDADLPADAQKNGCQDIAAQLVYNMDIDVILGGGRMYMFPEGTPDPEYPDDASVNGVRKDKQNLVQEWQAKHQGAQYVWNRTALLQAADDSSVTHLMGLFEPADMKYNVQQDHTKDPTLAEMTEAALQVLSRNPRGFYLFVEGGRIDHGHHDGKAYMALTEAIMFDNAIAKANELTSELDTLILVTADHSHVFSFGGYTLRGTSIFGLAPGKALDSKSYTSILYGNGPGYALGGGSRPDVNGSTSEEPSYRQQAAVPLASETHGGEDVAVFARGPQAHLVHGVQEETFVAHIMAFAGCVEPYTDCNLPAPA
B4: ALP fusion antibody of Example 2 (GS1): Fab of mouse anti-human IgG antibody, Fd-GS1-BIAPII (Fab, part only; not given: Fd and light chain of anti-IgG Fab, part only)
heavy, part: GGGGSLIPAEEENPAFWNRQAAQALDVAKKLQPIQTAAKNVILFLGDGMGVPTVTATRILKGQMNGKLGPETPLAMDQFPYVALSKTYNVDRQVPDSAGTATAYLCGVKGNYRTIGVSAAARYNQCNTTRGNEVTSVINRAKKAGKAVGVVTTTRVQHASPAGAYAHTVNRNWYSDADLPADAQKNGCQDIAAQLVYNMDIDVILGGGRMYMFPEGTPDPEYPDDASVNGVRKDKQNLVQEWQAKHQGAQYVWNRTALLQAADDSSVTHLMGLFEPADMKYNVQQDHTKDPTLAEMTEAALQVLSRNPRGFYLFVEGGRIDHGHHDGKAYMALTEAIMFDNAIAKANELTSELDTLILVTADHSHVFSFGGYTLRGTSIFGLAPGKALDSKSYTSILYGNGPGYALGGGSRPDVNGSTSEEPSYRQQAAVPLASETHGGEDVAVFARGPQAHLVHGVQEETFVAHIMAFAGCVEPYTDCNLPAPA
B5: ALP fusion antibody of Example 2 (EK1): Fab of mouse anti-human IgG antibody, Fd-EK1-BIAPII (Fab, part only; not given: Fd and light chain of anti-IgG Fab, part only)
heavy, part: B4 heavy, part with G1E, G2A, G3A, G4A, S5K

How the values were obtained:
[1] = molecular target: human IgG antibody (human); assay: sandwich chemiluminescence immunoassay (HISCL-800); PC counts over NC counts, R3 reagent stored at 4° C.
[2] = molecular target: human IgG antibody (human); assay: sandwich chemiluminescence immunoassay on magnetic particles (HISCL-800); capture biotin-labeled mouse anti-human IgG semi-IgG; binder as detection antibody, 0.051 U/mL
[3] = molecular target: human IgG antibody (human); assay: sandwich chemiluminescence immunoassay (HISCL-800); detection reagent stored at 40° C. for 1 week
[4] = molecular target: T1, human CD80/B7-1 protein (His tag) (human, UniProt P33681 35-242); assay: sandwich chemiluminescence ELISA; capture rabbit anti-CD80 IgG on plate, antigen 0.005-20 ng/mL, binder as detection antibody at 200 ng/mL
T1 construct: Recombinant His-tagged protein used as the antigen solution; also called antigen
T1 sequence (looked up): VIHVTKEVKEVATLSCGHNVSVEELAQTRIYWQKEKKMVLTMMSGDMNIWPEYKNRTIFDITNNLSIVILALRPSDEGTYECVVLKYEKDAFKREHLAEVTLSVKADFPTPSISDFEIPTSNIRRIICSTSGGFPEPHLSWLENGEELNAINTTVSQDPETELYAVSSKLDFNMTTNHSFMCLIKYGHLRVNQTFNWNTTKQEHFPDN
Procedure: Rabbit anti-CD80 antibody (IgG) was diluted with PBS to 1 μg/mL. The resulting antibody solution was added to a 96-well black plate at 100 μL/well and allowed to stand overnight at 4° C. to immobilize the antibody in the wells. After removing the antibody solution from the plate, Buffer I′ (100 mM HEPES, 1% BSA, 0.05% ProClin (trademark), 1 mM MgCl₂, 0.1 mM ZnCl₂, pH 8.0) was added at 300 μL/well and allowed to stand overnight at 4° C. for blocking. After removing the solution from the plate, a human CD80/B7-1 protein (His tag) solution (0.005, 0.020, 0.078, 0.313, 1.25, 5.0 or 20 ng/mL) was added as an antigen solution at 100 μL/well. The plate was shaken at room temperature at 500 rpm for 1 hour to perform an antigen-antibody reaction. The plate was washed three times with a HISCL washing solution (Sysmex Corporation), and then each ALP fusion antibody (200 ng/mL) of Example 1 diluted with Buffer I′ was added at 100 μL/well. The plate was shaken at room temperature at 500 rpm for 1 hour to perform an antigen-antibody reaction. After washing the plate with a HISCL washing solution three times, a HISCL R5 reagent (Sysmex Corporation) as a solution of a chemiluminescent substrate of ALP was added at 100 μL/well, and luminescence intensity was immediately measured with FLUOstar OPTIMA (BMG LABTECH).

[5] = molecular target: human IgG antibody (human); assay: sandwich chemiluminescence immunoassay on magnetic particles (HISCL-800); capture biotin-labeled mouse anti-human IgG semi-IgG; binder as detection antibody, 0.055 U/mL
[6] = molecular target: human IgG antibody (human); assay: sandwich chemiluminescence immunoassay on magnetic particles (HISCL-800); capture biotin-labeled mouse anti-human IgG semi-IgG; binder as detection antibody, 0.052 U/mL

| Binder | S/N [1] | Counts (PC, R3 reagent stored at 4° C.) [2] [counts] | Counts (PC, R3 reagent stored at 40° C., 1 week) [3] [counts] | binding result [4] | Counts (PC, R3 reagent stored at 4° C.) [5] [counts] | Counts (PC, R3 reagent stored at 4° C.) [6] [counts] |
| --- | --- | --- | --- | --- | --- | --- |
| B1 | 737 | 364000 | 331000 | – | – | – |
| B2 | – | – | – | binds | – | – |
| B3 | 665 | – | 436000 | – | 465000 | – |
| B4 | 737 | 359000 | 320000 | – | – | – |
| B5 | 927 | – | 421000 | – | – | 463000 |
